Results from US20140051120A1 (Genentech, published 2014).
Values joined by “and” are separate entries in the source; they are usually repeats but may differ in a detail not shown here. Equal entries are not always repeated. Where two headings read alike, the source gives them in different places.

What was measured:
[1] = molecular target: T1, human EGFL7 (EGFL7-CB-His) (human, UniProt Q9UHF1 23-273, limits assumed); assay: cell-based or functional assay
T1 sequence: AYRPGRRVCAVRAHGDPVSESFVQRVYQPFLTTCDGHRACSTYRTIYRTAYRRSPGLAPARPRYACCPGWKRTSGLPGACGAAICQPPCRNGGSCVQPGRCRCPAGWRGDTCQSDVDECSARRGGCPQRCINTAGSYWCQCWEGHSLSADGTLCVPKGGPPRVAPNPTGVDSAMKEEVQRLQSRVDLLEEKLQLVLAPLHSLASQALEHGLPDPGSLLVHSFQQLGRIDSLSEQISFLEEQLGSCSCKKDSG

[2] = molecular target: T2, mouse EGFL7 (mEGFL7-CB-His) (mouse, UniProt Q9QXT5 22-275); assay: SPR (Biacore), IgG over immobilized mEGFL7-CB at 37 C;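 note: IgG injected as twofold series from 0.5 to 1000 nM, 3 min association and 3.5 min dissociation, reference flow cell subtracted, kinetics fitted to 1:1 Langmuir model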
T2 sequence: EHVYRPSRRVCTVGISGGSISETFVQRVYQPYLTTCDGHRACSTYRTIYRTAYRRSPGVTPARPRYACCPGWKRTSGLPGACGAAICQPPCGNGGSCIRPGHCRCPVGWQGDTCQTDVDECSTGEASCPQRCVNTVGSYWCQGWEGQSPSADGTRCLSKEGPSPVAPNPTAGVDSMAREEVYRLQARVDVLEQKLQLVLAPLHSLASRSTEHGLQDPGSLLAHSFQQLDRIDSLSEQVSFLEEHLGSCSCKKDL
Experimental: Affinity determinations were performed by surface plasmon resonance using a BIAcore™-2000. Truncated EGFL7 or p5 peptide was immobilized (approximately 50-200 RU) in 10 mM sodium acetate pH 4.8 on a CMS sensor chip. Purified IgG variants were injected (using a 2-fold serial dilution of 0.5 to 1000 nM in PBST) at a flow rate of 30 μL/min. Each sample was analyzed with 3-minute association and 3.5-minute disassociation. After each injection the chip was regenerated using 10 mM glycine pH 1.7.
Binding response was corrected by subtracting a control flow cell from IgG variant flow cells. A 1:1 Languir model of simultaneous fitting of kₒₙ and koff was used for kinetics analysis.

[3] = molecular target: T3, p5 peptide of EGFL7 (human); assay: SPR (Biacore), IgG over immobilized P5 peptide at 37 C, n = 3
T3 construct: also called Peptide P5
T3 peptide: RACSTYRTIYRTA

[4] = molecular target: T4, truncated human EGFL7 (residues 1-182) (human, UniProt Q9UHF1 24-182); assay: phage ELISA on truncated huEGFL7 immobilized on a microtiter plate
T4 construct: Expressed in CHO cells; The range as printed starts at Met 1; also called truncated EGFL7; truncated huEGFL7
T4 chain: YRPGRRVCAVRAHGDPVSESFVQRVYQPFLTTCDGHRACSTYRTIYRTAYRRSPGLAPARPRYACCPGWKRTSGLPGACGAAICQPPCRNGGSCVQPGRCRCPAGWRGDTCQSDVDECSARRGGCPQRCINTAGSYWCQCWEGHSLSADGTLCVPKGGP

[5] = molecular target: T2, mouse EGFL7 (mEGFL7-CB-His); assay: cell-based or functional assay
[6] = molecular target: T3, p5 peptide of EGFL7; assay: SPR (Biacore), IgG over immobilized P5 peptide at 37 C;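 note: IgG variants injected at 0.5–1000 nM (2-fold series), 3 min association and 3.5 min dissociation, reference flow cell subtracted, kinetics fitted with a 1:1 Langmuir model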
[7] = molecular target: T4, truncated human EGFL7 (residues 1-182); assay: phage ELISA on truncated huEGFL7 immobilized on a microtiter plate

B1: 18F7.v6 IgG (antibody, V domains shown)
VH: EVQLVESGGGLVQPGGSLRLSCAASGYTFIDYYMNWVRQAPGKGLEWVGDINLDNGGTHYNQKFKGRFTISRDKSKNTAYLQMNSLRAEDTAVYYCAREGVYHDYDDYAMDYWGQGTLVTVSS
VL: DIQMTQSPSSLSASVGDRVTITCRTSQSLVHINGITYLHWYQQKPGKAPKLLIYRVSNRFSGVPSRFSGSGSGTDFTLTISSLQPEDFATYYCGQSTHVPLTFGQGTKVEIKR
notes: IgG; also called hu18F7.v6
IC50, HUVEC adhesion [left panel] [1]: 5.62 nM
Kd [2]: 0.408 nM
koff [2]: 2.04e-05 s⁻¹
kon [2]: 50000 M⁻¹ s⁻¹
Kd [3]: 3.21 nM
koff [3]: 0.000389 s⁻¹
kon [3]: 121000 M⁻¹ s⁻¹

B2: phage displaying 18F7-graft Fab (Fab, V domains shown)
VH: EVQLVESGGGLVQPGGSLRLSCAASGYTFIDYYMNWVRQAPGKGLEWVGDINLDNGGTHYNQKFKGRFTISRDNSKNTLYLQMNSLRAEDTAVYYCAREGVYHDYDDYAMDYWGQGTLVTVSS
VL: DIQMTQSPSSLSASVGDRVTITCRTSQSLVHINGITYLHWYQQKPGKAPKLLIYRVSNRFSGVPSRFSGSGSGTDFTLTISSLQPEDFATYYCSQSTHVPLTFGQGTKVEIKR
notes: Monovalent Fab-g3 display on M13 phage; heavy chain VH-CH1 fused to P3; also called 18F7-graft phage
binding result [4]: binds

B3: 18F7.v6K IgG (antibody, V domains shown)
VH: EVQLVESGGGLVQPGGSLRLSCAASGYTFIDYYMNWVRQAPGKGLEWVGDINLDNSGTHYNQKFKGRFTISRDKSKNTAYLQMNSLRAEDTAVYYCAREGVYHDYDDYAMDYWGQGTLVTVSS
VL: DIQMTQSPSSLSASVGDRVTITCRTSQSLVHINAITYLHWYQQKPGKAPKLLIYRVSNRFSGVPSRFSGSGSGTDFTLTISSLQPEDFATYYCGQSTHVPLTFGQGTKVEIKR
notes: IgG; also called hu18F7.v6k; h18F7.v6k
IC50, HUVEC adhesion [right panel] [5]: 6.37 µg/ml and 42 nM
Kd [2]: 1.6 nM
koff [2]: 4.54e-05 s⁻¹
kon [2]: 28000 M⁻¹ s⁻¹
Kd [6]: 5.2 nM
koff [6]: 0.000662 s⁻¹
kon [6]: 127000 M⁻¹ s⁻¹

B4: phage displaying 4F11.v1 Fab (Fab, V domains shown)
VH: EVQLVESGGGLVQPGGSLRLSCAASGHTFTTYGMSWVRQAPGKGLEWVGWINTHSGVPTYADDFKGRFTISRDNSKNTLYLQMNSLRAEDTAVYYCARLGSSAVDYWGQGTLVTVSS
VL: DIQMTQSPSSLSASVGDRVTITCKASQSVDYDGDSYMSWYQQKPGKAPKLLIYGASNLESGVPSRFSGSGSGTDFTLTISSLQPEDFATYYCQQNNEDPYTFGQGTKVEIKR
notes: Monovalent Fab-g3 display on M13 phage; heavy chain VH-CH1 fused to minor coat protein P3; also called 4F11.v1 phage; 4F11-graft Fab on phage
binding result [7]: binds
